Source: patent US20050054571A1, “Antimicrobial proteins from the SPO1 bacteriophage” (Rice University, priority 2003, published 2005)

Legend:
[1] = test system: E. coli; experiment: Effect of induced expression of cloned SPO1 genes on growth and viability of E. coli (liquid medium and colony formation); assay type: cell-based; conditions: cloned gene(s) expressed from IPTG-inducible promoter, * = lethality conclusion based on failure to clone, ** = data not conclusive
Excerpt: (§1) For analysis of antimicrobial activity we first cloned most of the 24 host-takeover genes (genes 37-60) singly or in multiple gene combinations into a B. subtilis/E. coli shuttle vector (pPW19) under control of an IPTG-inducible promoter (Wei and Stewart, 1993). […] These remaining genes are being cloned using expression vectors with more tightly regulated promoters, such as pJONEX4 (Sayers, 1996), pET101, or pX (Kim et al., 1996). The transformed E. coli and B. subtilis were used to determine the antimicrobial activity, if any, of the cloned genes. The effect of induction on bacterial growth and viability was measured both in liquid medium and by colony formation. Definitive establishment of lethality was shown by loss of the ability to form colonies even after removal from the inducing agent. Indication of probable lethality was based on total inability to form colonies under inducing conditions.

[2] = test system: bacterial DNA, RNA, and protein synthesis; conditions: uninfected cells of either B. subtilis or E. coli; Wei and Stewart, 1993, 1995; cited from earlier work
[3] = test system: bacterial DNA, RNA, and protein synthesis; experiment: DNA, RNA and protein synthesis in uninfected bacteria expressing cloned SPO1 genes; assay type: cell-based, B. subtilis or E. coli; conditions: expression of cloned gene(s) in uninfected cells
Description: Pulse Labeling: Rates of synthesis of host and phage RNA or protein were measured in C4 medium as described previously (Wei and Stewart, 1993), by pulse-labeling for 5 minutes with [5-^3H]uridine, or [4,5-^3H]leucine, precipitating with TCA, and counting the precipitate. Since SPO1 DNA contains hmUra in place of thymine, host DNA synthesis could be measured independently by pulsing with [methyl-^3H]thymidine. Phage DNA synthesis was measured by pulsing with [2,8-^3H]adenine, and measuring alkali-stable, TCA-precipitable counts. Pulsing with [2,8-^3H]adenine measures host as well as phage DNA synthesis, but most host DNA synthesis has been shut off by the time that phage replication begins, even in mutant infections, so incorporation of label after 12 minutes is overwhelmingly into phage DNA. The time given for each pulse is the time at which the pulse began.
Adding gene 50 to the 51 clone increases its lethal efficiency, as does combining all 3 genes in a single clone. […] Mutants resistant to genes 51/50 have been isolated, but the mutant gene(s) have not yet been identified. […] The effects on DNA and protein synthesis are probably indirect effects of the inhibition of host RNA synthesis.
The simplest hypothesis as to how GP44/50/51 regulate gene expression is that they interact with the host's RNAP to change its transcriptional specificity. […]

[4] = test system: E. coli strain DH5(pPW27); experiment: Killing of E. coli by IPTG-induced expression in liquid medium, viable cells counted by plating without inducer (FIG. 8); assay type: cell-based; conditions: within three hours after induction at time 0 (0.2 mM IPTG), plating in the absence of inducer
Description: FIG. 8. Expression of SPO1 GP44 in E. coli. Cells of E. coli strain DH5(pPW27), which expresses SPO1 gene 44 from an IPTG-inducible promoter, were transformed either with vector pACYC177 or with plasmid pPW40, in which the mutant ipoB gene had been cloned in pACYC177. Aliquots of the two cultures were induced by adding 0.2 mM IPTG at time 0, and were assayed for viable cells at various times thereafter, by plating on media lacking IPTG. Open symbols, no IPTG; Closed symbols, 0.2 mM IPTG added at time 0; Squares, mutant rpoB; and Circles, no mutant rpob. Viable cell count is expressed in cells/ml ×10^−6.
(§2) In cells growing in liquid medium, expression of the cloned gene 44 was induced at time 0. At subsequent times, the number of cells remaining viable was measured by plating in the absence of inducer. More than 99% of the cells were killed within three hours.

[5] = test system: B. subtilis; experiment: Effect of induced expression of cloned SPO1 genes on growth and viability of B. subtilis (liquid medium and colony formation); assay type: cell-based; conditions: cloned gene(s) expressed from IPTG-inducible promoter, * = lethality conclusion based on failure to clone, ** = data not conclusive
Excerpt: as §1

[6] = test system: B. subtilis; experiment: Effect of gene expression on cell division of B. subtilis; assay type: cell-based; conditions: expression of the gene alone in B. subtilis
Excerpt: Genes 58-56: Expression of the whole operon is lethal to both species. […] Infection by SPO1 inhibits cell division, and a gene 56 mutation prevents that inhibition. B. subtilis mutants resistant to GP56 have been isolated, but the mutant gene(s) has not yet been identified.

[7] = test system: bacteria; experiment: Toxicity or lethality of expression of cloned SPO1 genes, bacterium not given; assay type: cell-based
Excerpt: as §1, §2

Molecule | Lethality, E. coli ([1]; listed as 44) | effect of expression on bacterial RNA synthesis and viability [2] | effect of expression on bacterial DNA, RNA and protein synthesis [3] | cells killed [4] | Lethality, B. subtilis ([5]; listed as 44) | Lethality, E. coli [1] | effect on cell division [6] | Lethality, B. subtilis ([5]; listed as 56) | toxicity or lethality of expression [7] | Lethality, E. coli ([1]; listed as 51) | Lethality, B. subtilis ([5]; listed as 51)
Gene 44: product of SPO1 host-takeover gene 44, SEQ ID NO: 8 (protein, SPO1 Bacteriophage) MAKSNNVYVVNGEEKVSTLAEVAKVLGVSRVSKKDVEEGKYDVVVEEAAVSLADTEEVVEEVVTEEEDILEGVEVVEDEEEEEAAEDVEEPTSEEDSEDEWEEGYPVATEVEEDEDEEIEYPEVGDFEDEKAIKKYIKGLTDEQLQAWCELEGAEWVENEHRNINRMRMAMAIKAVHFPELAKKPSSKKKSKYAEYTTEELVEMAIDNNVEVRDDKGNERILRMYTIIALREAGLIS | Lethal | caused the shutoff of bacterial RNA synthesis and cell death | inhibiting DNA, RNA, and protein synthesis | More than 99% | Lethal |  |  |  |  |  | 
Gene 56: product of SPO1 host-takeover gene 56, SEQ ID NO: 20 (protein, SPO1 Bacteriophage) MFKYTDRSVRQYIERQQRSAMLEQEQAEKDKKERRKAGLLFFGTIVVLVAVVAVYIVPQSLDAMWHENYEKPAQEAARN |  |  |  |  |  | Mildly toxic | specifically inhibiting cell division, without affecting DNA synthesis or chromosomal segregation | Lethal | lethal effect |  | 
Gene 51: product of SPO1 host-takeover gene 51, SEQ ID NO: 15 (protein, SPO1 Bacteriophage) MAKINKGYVANFIEENGFPEQGHFEEKKDLQAFYKHLSTEQLEEWVELEGLEVKDTDSDSIYRMRLCMAILYLNFPKKTAGKKKASPYKHISLEELVQMATDNDIEVKHTDSDKILRMRTIMALKEAGKLG |  |  | inhibiting DNA, RNA, and protein synthesis |  |  |  |  |  |  | Lethal | Lethal
